Data published in a protein production outcome set (Wang et al. 2014).

Assay: label from the status in PepcDB records

Row | Sequence | protein production
1 | MIVLALDVYEGERAIKIAKSVKDYISMIKVNWPLILGSGVDIIRRLKEETGVEIIADLKLADIPNTNRLIARKVFGAGADYVIVHTFVGRDSVMAVKELGEIIMVVEMSHPGALEFINPLTDRFIEVANEIEPFGVIAPGTRPERIGYIRDRLKEGIKILAPGIGAQGGKAKDAVKAGADYIIVGRAIYNAPNPREAAKAIYDEIRGV | not failed
2 | RFGLPVNGALDQYSARAANILAGNLDNHPLLEITALDFRMKANSDVLIAVTGAPLTLTVGGRPCSQWEPVSVRAGESVSIRGIHRGLRAYLAIHGSIEAGTLLGSAAPDTVVGFGLQLQEGTTLLSRRSVSPVRQPYFDLPLFRLGLERPSMGSDLSVDVTDGPDVAEFGESGELLFTSEYVVSGRSNHIGLRLGGELPERTSSDEVLSRGVPVGAVEVPSREELLVLHRGRGVTAGYPVLAVVTSTGLDVLAQARPGDKVRFRKTTVAEATAAHRRSRAQ | failed
3 | MGHHHHHHSHSIKPSTNLVFAKVLEKTRHPNANHLNLVKVKANQKVYEIVCGANNFSVHNWVVLAKLNAELANGLKITPRELRGYVSNGMLCAYSEINPQATSFLTSTDLDGILVLDDNYDHYKTPNQIFNLDDVILDLSIPSNRNDLNGYFWIAKELCAYFDFEYVVDATINHRPHKEIIDVRI | failed
4 | MAFSAPEPELSVVVPTLNEAETVATLLAALAAQRDVALELLLCDGGSTDGTAALVRGRAGDLPFPVTVTETPPGRGRQMNAGAAAARGATFLFLHADSIIADPLALRRGLDHLAAARRSDKRAAGHFRLRFAGDSPSPLAYRFYERKARLHRPGCTHGDQGLLIPREFFDQVGPFDEGLPILEDVRLAERIAAMGTWVLLPAEIITSARRFETEGLRERQTLNAILMNFAAIGWQQGVEELVAGYRSQDRSGRLRLGPHLARIAGLTAALPRQERLRLWYLTGGYVRGNAWQIPLFLDVRNAWRRGGDDGATPLLSLHDRWFDLLTDNPAGRAAAALMTFLWFRLTLRREMKDWPGILRTPLEHHHHHH | failed
5 | MPRFRSVFLALLVVPLVDAVFLVFVAGELGWQLTVALVVLTALLGTLFVRAEGRATLSRLQASVARGDPPTNELVDGGLLIAAGAFLLTPGLVTDALGFLIVIPVTRVAFRWGVKRYVTPKLDAKTGGFVSGNVYTFGFPGGDGGAGGDPRSGFGGGAGDGDDDTINLGDDAYDVSFEDDADGDQ | failed
6 | MAPIFRNYRFAIGAFAVIMLILLIKTSSIGPPSIARTVTPNASIPKTPEDISILPVNDEPGYLQDSKTEQNYPELADAVKSQTSQTCSEEHKYVIMIDAGSTGSRVHIYKFDVCTSPPTLLDEKFDMLEPGLSSFDTDSVGAANSLDPLLKVAMNYVPIKARSCTPVAVKATAGLRLLGDAKSSKILSAVRDHLEKDYPFPVVEGDGVSIMGGDEEGVFAWITTNYLLGNIGANGPKLPTAAVFDLGGGSTQIVFEPTFPINEKMVDGEHKFDLKFGDENYTLYQFSHLGYGLKEGRNKVNSVLVENALKDGKILKGDNTKTHQLSSPCLPPKVNATNEKVTLESKETYTIDFIGPDEPSGAQCRFLTDEILNKDAQCQSPPCSFNGVHQPSLVRTFKESNDIYIFSYFYDRTRPLGMPLSFTLNELNDLARIVCKGEETWNSVFSGIAGSLDELESDSHFCLDLSFQVSLLHTGYDIPLQRELRTGKKIANKEIGWCLGASLPLLKADNWKCKIQSA | failed
7 | MNQLTQYTITEQEINQSLAKHNNFSKDIGLPGVADAHIVLTNLTSQIGREEPNKVTLTGDANLDMNSLFGSQKATMKLKLKALPVFDKEKGAIFLKEMEVVDATVQPEKMQTVMQTLLPYLNQALRNYFNQQPAYVLREDGSQGEAMAKKLAKGIEVKPGEIVIPFTDLEHHHHHH | not failed
8 | MGNILKDKSMAFAIQIVNLHKYPNKRKAYSLSDQILISGTAIGVLQKETECAESNADFIHNIASPQKNVTKPFSGLNCYLKQNIYPKQNIQACLQTQMNLEHHHHHH | failed
9 | MTLTLLLLIFILISFISALTIIFITVKKGIFFNRLYLQSIIVCILFFTNWILYLSTFYALLPEKISEFLFLPIWFFLCILSFITFWREWRNNRVFSICIGFLSFISFLFVLFLLVLSGM | failed
10 | MGAGSQTTGAGQKKVQTITVGTGTQFPNICFIDEKGDLTGYDVELIKELDKRLPHYKFTFKTMEFSNLLVSLGQHKVDIVAHQMEKSKEREKKFLFNKVAYNHFPLKITVLQNNDTIRGIEDLKGKRVITSATSNGALVLKKWNEDNGRPFEIAYEGQGANETANQLKSGRADATISTPFAVDFQNKTSTIKEKTVGNVLSNAKVYFMFNKNEQTLSDDIDKALQEIIDDGTLKRLSLKWLGDDYSKEQYLEHHHHHH | not failed
11 | MPMWLQALMWGTLAGGALVLGAGIAWMWKVPPKIVSTVMAFGAGVLISALAFELVDEAVEGGGLLPTVLGFLLGALIFVGSNALLARAGAKHRKRSGGSQPSEKDSPGSGTAIAVGALIDGIPESVVLGVGLLAGGAVSPAMLAAVLISNVPEGLSSTAGMKKAGRSPAYVFGTWIGIAVFSGLAALLGYTALENAPETVIAFITAIAAGGILAMLADTMIPEAFEEHHNLTGLTAAVGFLSAFTIHHVGG | failed
12 | RGRGGTGGARRLSCGARRRAARGTSPGRRLSTAWSQPQPPPEEYAGADDVSQSPVAEEPSWVPSPRPPVPHESPEPPSGRSLVQRDIQAFLNQCGASPGEARHWLTQFQTCHHSADKPFAVIEVDEEVLKCQQGVSSLAFALAFLQRMDMKPLVVLGLPAPTAPSGCLSFWEAKAQLAKSCKVLVDALRHNAAAAVPFFGGGSVLRAAEPAPHASYGGIVSVETDLLQWCLESGSIPILCPIGETAARRSVLLDSLEVTASLAKALRPTKIIFLNNTGGLRDSSHKVLSNVNLPADLDLVCNAEWVSTKERQQMRLIVDVLSRLPHHSSAVITAASTLLTELFSNKGSGTLFKNAERMLRVRSLDKLDQGRLVDLVNASFGKKLRDDYLASLRPRLHSIYVSEGYNAAAILTMEPVLGGTPYLDKFVVSSSRQGQGSGQMLWECLRRDLQTLFWRSRVTNPINPWYFKHSDGSFSNKQWIFFWFGLADIRDSYELVNHAKGLPDSFHKPASDPGS | failed
13 | MAARTLPDRFIARAPVPADAPAIARLIAACQEADGDEPDASAEEVLRDWEGLDLGQEAVLVVAPDGEAAAYADVLNRRYVQLSVYGYVHPRFRGMGLGTWLVQWGEEWIQDRMHLAPAEAQVTVQHYIRASSTSALRLMEQHGYRPVRDIWVMAITLDQPPPAPEWPEGITARTFVPGLDERATYEAVEEAFGDIWGRPPSTFERWLSMTQSERKDPELWLLAVETDSGHIVGTCLGQETAGKGWIGSVGVRRPWRGRGIALALLQEVFGVYYRRGVREVELSVDAESRTGAPRLYRRAGMHVKHRYVLHRKEIRPGIDLSTTAAHS | not failed
14 | MMTLIRITSADDSRLNRLIPLYEESFPESERRKIGQLKRMIENHAPMYFNAIECDGELSGMFVYWDMGDFYYLEHLAVFPEMRNKKIGQQVLDYVAEHLKGVRLLEVEPTEDEMTTRRVNYYRRNGYEVLDKTYVQPSYHALEDACPLWIMGSEDSPRLAEQVERIKEEVYRQQVG | not failed
15 | MIKSFRHKGLKKFFESGSTAGIQPAHKNRLARQLHQLNVASCPDDMNLPGWGLHLLQGKNPKKQDVDGHYSISVNGNWRLTFYFDHGDAVLVDYQDYH | failed
16 | MIGVITSLTGGAILRNPAVLLIPLIYLVGRRSRDLTYLLFVMYTIITFQFVEVKELISYETIKTTLMAIIPSLLALKESIEGKKLQKTDLYYLPLFFLGVLRDYFYYLGLIIAGLLHIENFHSILIPAAVFSLIISPALVGELIELPGEYISIIMAGSLLVIYLVFQPTRR | failed
17 | MLPQILIVILSLIEGLDPYKGLLFSYYFYSFKKVKESFVVPLLSTLSYYSLGILVVFFTFSSLQSSNSTKVIVIFLVIIHILMKMFLGKLLHYTGSMRVSVYNLVKSTFLNSILQMNVILLIILAIIVNTLFVFLPVGVFIVREVTYFIVLKKNNVLVLLTKFNFDYIYSVTLLILALAVLLQS | failed
18 | MKLLAITSCPNGIAHTYMAAENLQKAADRMGVQMKVETQGGIGVENELTEQEIREADAIIIAADRSVNKDRFIGKKLLAVGVQEGIRKPEELIQKAIGGDIPVYRSAVKTEASAQTEKKQNPIYRHLMNGVSFMVPFIVVGGLLIAVALTLGGEKTPKGLVIPDDSFWKTIEQIGAASFSFMIPILAGYIAYSIADKPGLVPGMIGGYIAATGSFYGSGSGAGFLGGIIAGFLAGYAALAIKKLKVPKAIQPIMPIIVIPVVSSLIVGLAFVLLIGAPVAQIFESLTVWLAGMQGSSSILLALILGAMISFDMGGPVNKVAFLFGSAMIGEGNYEIMGPIAVAICIPPIGLGIATFLGKRKFQAQEREMGKAAFTMGLFGITEGAIPFAAQDPLRVIPSIMAGSMTGSVIAMIGNVGDRVAHGGPIVAVLGAVDHVLMFFIAVIAGSLVTSLLVNVLKKEVTAAPAGISEAAAGNDIPQPNIEIEAESKKIEKPEITKLTDIIDTDLIEPHLSGDTRDDIIDEMIQKLSRKGVLHSESEFKQAIINRELEGTTAIGMNIAIPHGKSDAVKKPSVAFGIKRSGVDWRSLDGTDAKLIFMIAVPKESGGNEHLKLLQMLSRKLMDDTYRDKLLSAQTKEEAYKLLDEII | failed
19 | MSLTEPRIVATYHIASDAERIEQRALALAIEQSVECPLEAIGDPAIVANIVGRVEDVAELQPGRYAVRIGLAAATAPAEPGQLLNMLFGNSSIQPDIALADVELPAHYLTAFGGPRVGLAGIRTLTGAQSRALTASALKPQGLSPAALASIAHQLALGGVDLIKDDHGLADQAFSPFAERAAAVGKAVREANAARGGRTLYAPNISGTLDDMRRQLGVIRDEGIGAVLVAPMIVGVSNFHAIVKEAAGLVVVAHPAMAGAAKIAAPLLLGRLFRLFGADATVFPNYGGRFAYSTASCLALAQAARDPFGKLNACIPTPAGGIMLQRVNELLRFYGQDVMLLIGGSLLASRERLTEQASRFVNKVADYGQREGHHHHHH | not failed
20 | MSGWYELSKSSNDQFKFVLKAGNGEVILTSELYTGKSGAMNGIESVQTNSPIEARYAKEVAKNDKPYFNLKAANHQIIGTSQMYSSTAARDNGIKSVMENGKTTTIKDLTLEHHHHHH | not failed
21 | KDFLAMFSPKCGGCNRPVLENYLSAMDTVWHPECFVCGDCFTSFSTGSFFELDGRPFCELHYHHRRG | not failed
22 | MWQQHLAILPILVPLLAALLQLLPWGDRPQPKRRAIGLLSSILTLILTIALLVQVNQDQMIVYALGNWSAPFGIVLMVDKLSALMMLVTAILALPVLIYGCYAEDNLGSHFQALFQFQIMGIMGAFATGDIFNLFVFFEVLLISSYALLMHGGGKFRLRTTLHYVLLNLLGSALFLISVGTLYGVTGTLNMADLATQVQQLSGDQAALAKAGGMMLLIVFGIKAAILPLHFWLPQAYSTTTGVVAALFAIMTKVGVYAIVRVYTLIFGPEANELALIAHDWLWVMGLVTMLAGAIGIIGARDLRLLVAYLVVISIGTLIATYSLNGIATTGAMLFYLIHSTFITGALFLLADLIAFERGKTASRIVSGKKMANHSAYSVMFLIAAIAIIGLPPLSGFVGKLMIMESASPTGASFWLWGAMLGATLIMLISVTRAGSKMLWHTLSGKANEQSAPLGKRAAVVMLLSLSVVMTLFASPIRNYTDDVAEQLYDIDQYPSRVLTKGAE | failed
23 | MFIGIVSLFLTVLVYLGAKKVYQRFPRVYTSPLLVTPAVLVGLLLLVNVPYESYNLGGGLLTDMLQPATVAFAIPLYKYFPVLKKYAVEIILNVAVGSCIAIISTALIAKWLHLGTGLIDSLVPRSVTTPIAVHVSEMIGGMPAVTAVFVILTALLGTVIGPMVIRYFRIDNEIARGVLLGTSAHGAGTSKAFELSSVSGTISSVSMILAAIMTLWPAPFCFHLCKKLSSRGQFFLCASPY | failed
24 | MEEKVEELIDIYKQQIYSLCYKLAKTKEDAEDIFQETWIKVFSSRHQLSYVENYKKWITTICVRTFYDFYSKKKRWKDRVLDLFHKEDGGEIEFADDVNISEEFIQKVEAEMIREVIQLLNEKYKTVLVLYYYEQYSYKEMSEILNIPIGTVKYRLNYAKKQMREHLEGFVHEGR | failed
